Assay results published in the supplement of paper PMC7877785.
± gives the uncertainty stated by the source.

Assay: self-splicing fitness, log relative to wild type (ln ratio); higher = more splicing; Tetrahymena group I intron in knt gene, E. coli kanamycin selection, DiMSum; sequences stand for … in CUCUCU…GGAGGGAAAAGUUAUCAGGCAUGCACCUGGUAGCUAGUCUUUAAACCAAUAGAUUGCAUCGGUUUAAAAGGCAAGACCGUCAAAUUGCGGGAAAGGGGUCAACAGCCGUUCAGUACCAAGUCUCAGGGGAAACUUUGAGAUGGCCUUGCAAAGGGUAUGGUAAUAAGCUGACGGACAUGGUCCUAACCACGCAGCCAAGUCCUAAGUCAACAGAUCUUCUGUUGAUAUGGAUGCAGUUCACAGACUAAAUGUCGGUCGGGGAAGAUGUAUUCUUCUCAUAAGAUAUAGUCGGACCUCUCCUUAAUGGGAGCUAGCGGAUGAAGUGAUGCAACACUGGAGCCGCUGGGAACUAAUUUGUAUGCGAAAGUAUAUUGAUUAGUUUUGGAGUACUCGUGGUCG
Summary of the method: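 DiMSum derived fitness as the error-weighted combination of fold changes across replicates, kanamycin versus no kanamycin, normalised to wild type. E. coli BL21(DE3) held the library, which randomised all eight P1ex-region intron nucleotides within the knt kanamycin-resistance gene on pET-22b(+). Six replicate transformations grew overnight at 37°C or 30°C on LB agar with or without 25 μg/mL kanamycin, also containing 100 μg/mL carbenicillin, 50 μM IPTG and 0.2% rhamnose, and pooled colonies were amplicon-sequenced on an Illumina HiSeq 2500.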

With CGAAAGCAAUAUUACGAGGG the “self-splicing fitness (ln)” value (30 °C) was -3.66 ± 0.14 and the “self-splicing fitness (ln)” value (37 °C) was -2.17 ± 0.13.

In the case of CGAAAGCAAUAUUACGAUAG, the “self-splicing fitness (ln)” value (30 °C) is reported as -0.598 ± 0.074 and the “self-splicing fitness (ln)” value (37 °C) is reported as 0.569 ± 0.1.

In the case of CGAAAGCAAUAUUACGAUCC, the “self-splicing fitness (ln)” value (30 °C) is reported as -1.03 ± 0.16 and the “self-splicing fitness (ln)” value (37 °C) is reported as -0.798 ± 0.17.

In the case of CGAAAGCAAUAUUACGAUGA, the “self-splicing fitness (ln)” value (30 °C) is reported as -0.9 ± 0.08 and the “self-splicing fitness (ln)” value (37 °C) is reported as -0.508 ± 0.088.

With CGAAAGCAAUAUUACGCAAC the “self-splicing fitness (ln)” value (30 °C) was -2.4 ± 0.18 and the “self-splicing fitness (ln)” value (37 °C) was -2.39 ± 0.35.

In the case of CGAAAGCAAUAUUACGCAAG, the “self-splicing fitness (ln)” value (30 °C) is reported as -1.44 ± 0.097 and the “self-splicing fitness (ln)” value (37 °C) is reported as -0.503 ± 0.12.

For CGAAAGCAAUAUUACGCAGA, the “self-splicing fitness (ln)” value (30 °C) was -4.25 ± 0.42 and the “self-splicing fitness (ln)” value (37 °C) was -0.12 ± 0.17.

In the case of CGAAAGCAAUAUUACGCAGU, the “self-splicing fitness (ln)” value (30 °C) is reported as -3.8 ± 0.22 and the “self-splicing fitness (ln)” value (37 °C) is reported as -2.69 ± 0.17.

For CGAAAGCAAUAUUACGCCUC, the “self-splicing fitness (ln)” value (37 °C) was -1.53 ± 0.32.

With CGAAAGCAAUAUUACGCGUG the “self-splicing fitness (ln)” value (30 °C) was -1.16 ± 0.068 and the “self-splicing fitness (ln)” value (37 °C) was 0.12 ± 0.079.

With CGAAAGCAAUAUUACGCUAU the “self-splicing fitness (ln)” value (30 °C) was -4.13 ± 0.36 and the “self-splicing fitness (ln)” value (37 °C) was -2.4 ± 0.27.

With CGAAAGCAAUAUUACGCUCC the “self-splicing fitness (ln)” value (30 °C) was -1.14 ± 0.18 and the “self-splicing fitness (ln)” value (37 °C) was -1.11 ± 0.21.

With CGAAAGCAAUAUUACGGAAU the “self-splicing fitness (ln)” value (30 °C) was -3.69 ± 0.29 and the “self-splicing fitness (ln)” value (37 °C) was -2.15 ± 0.49.

For CGAAAGCAAUAUUACGGAUA, the “self-splicing fitness (ln)” value (30 °C) was -2.86 ± 0.18 and the “self-splicing fitness (ln)” value (37 °C) was -3 ± 0.19.

With CGAAAGCAAUAUUACGGGGC the “self-splicing fitness (ln)” value (30 °C) was -4.34 ± 0.32 and the “self-splicing fitness (ln)” value (37 °C) was -1.98 ± 0.19.

For CGAAAGCAAUAUUACGUAGU, the “self-splicing fitness (ln)” value (30 °C) was -3.2 ± 0.098 and the “self-splicing fitness (ln)” value (37 °C) was -2.77 ± 0.13.

In the case of CGAAAGCAAUAUUACGUCAC, the “self-splicing fitness (ln)” value (37 °C) is reported as -2.32 ± 0.32.

For CGAAAGCAAUAUUACGUCAU, the “self-splicing fitness (ln)” value (30 °C) was -4.71 ± 0.36 and the “self-splicing fitness (ln)” value (37 °C) was -0.631 ± 0.14.

For CGAAAGCAAUAUUACGUCCU, the “self-splicing fitness (ln)” value (30 °C) was -0.837 ± 0.11 and the “self-splicing fitness (ln)” value (37 °C) was -0.445 ± 0.13.

In the case of CGAAAGCAAUAUUACGUCGA, the “self-splicing fitness (ln)” value (30 °C) is reported as -3.02 ± 0.17 and the “self-splicing fitness (ln)” value (37 °C) is reported as -1.51 ± 0.14.

In the case of CGAAAGCAAUAUUACGUCGC, the “self-splicing fitness (ln)” value (30 °C) is reported as -3.03 ± 0.21 and the “self-splicing fitness (ln)” value (37 °C) is reported as -2.59 ± 0.23.

With CGAAAGCAAUAUUACGUGAG the “self-splicing fitness (ln)” value (30 °C) was -0.204 ± 0.048 and the “self-splicing fitness (ln)” value (37 °C) was -0.102 ± 0.071.

With CGAAAGCAAUAUUACGUUGA the “self-splicing fitness (ln)” value (30 °C) was -3.72 ± 0.18 and the “self-splicing fitness (ln)” value (37 °C) was -2.28 ± 0.16.

With CGAAAGCAAUAUUACGUUUA the “self-splicing fitness (ln)” value (30 °C) was -1.99 ± 0.13 and the “self-splicing fitness (ln)” value (37 °C) was -1.83 ± 0.14.

In the case of CGACAGCAAUAUUACGAGUC, the “self-splicing fitness (ln)” value (30 °C) is reported as -4.97 ± 0.36 and the “self-splicing fitness (ln)” value (37 °C) is reported as -2.42 ± 0.24.

With CGACAGCAAUAUUACGAUAA the “self-splicing fitness (ln)” value (30 °C) was -3.74 ± 0.28 and the “self-splicing fitness (ln)” value (37 °C) was -1.27 ± 0.14.

For CGACAGCAAUAUUACGCAAA, the “self-splicing fitness (ln)” value (30 °C) was -3.94 ± 0.31 and the “self-splicing fitness (ln)” value (37 °C) was -3.08 ± 0.22.

In the case of CGACAGCAAUAUUACGCAAC, the “self-splicing fitness (ln)” value (30 °C) is reported as -4.32 ± 0.31 and the “self-splicing fitness (ln)” value (37 °C) is reported as -2.61 ± 0.27.

For CGACAGCAAUAUUACGCAUU, the “self-splicing fitness (ln)” value (30 °C) was -2.93 ± 0.15 and the “self-splicing fitness (ln)” value (37 °C) was -2.03 ± 0.16.

For CGACAGCAAUAUUACGCCUA, the “self-splicing fitness (ln)” value (30 °C) was -2.48 ± 0.19 and the “self-splicing fitness (ln)” value (37 °C) was -1.01 ± 0.17.

With CGACAGCAAUAUUACGCUAA the “self-splicing fitness (ln)” value (30 °C) was -2.16 ± 0.19 and the “self-splicing fitness (ln)” value (37 °C) was -1.57 ± 0.18.

With CGACAGCAAUAUUACGCUAC the “self-splicing fitness (ln)” value (37 °C) was -1.12 ± 0.28.

With CGACAGCAAUAUUACGGAAC the “self-splicing fitness (ln)” value (30 °C) was -3.4 ± 0.19 and the “self-splicing fitness (ln)” value (37 °C) was -2.74 ± 0.23.

With CGACAGCAAUAUUACGGCCA the “self-splicing fitness (ln)” value (30 °C) was -1.16 ± 0.15 and the “self-splicing fitness (ln)” value (37 °C) was -0.534 ± 0.18.

With CGACAGCAAUAUUACGGGGA the “self-splicing fitness (ln)” value (30 °C) was -3.22 ± 0.15 and the “self-splicing fitness (ln)” value (37 °C) was -2.35 ± 0.11.

In the case of CGACAGCAAUAUUACGGUUC, the “self-splicing fitness (ln)” value (30 °C) is reported as -2.59 ± 0.1 and the “self-splicing fitness (ln)” value (37 °C) is reported as -2.24 ± 0.13.

In the case of CGACAGCAAUAUUACGUAAU, the “self-splicing fitness (ln)” value (30 °C) is reported as -3.73 ± 0.16 and the “self-splicing fitness (ln)” value (37 °C) is reported as -2.34 ± 0.15.

For CGACAGCAAUAUUACGUAUA, the “self-splicing fitness (ln)” value (30 °C) was -4.3 ± 0.47 and the “self-splicing fitness (ln)” value (37 °C) was -1.54 ± 0.27.

With CGACAGCAAUAUUACGUCAC the “self-splicing fitness (ln)” value (30 °C) was -3.14 ± 0.14 and the “self-splicing fitness (ln)” value (37 °C) was -2.19 ± 0.16.

With CGACAGCAAUAUUACGUGAG the “self-splicing fitness (ln)” value (30 °C) was -0.627 ± 0.052 and the “self-splicing fitness (ln)” value (37 °C) was -0.333 ± 0.074.

For CGACAGCAAUAUUACGUGCC, the “self-splicing fitness (ln)” value (30 °C) was -1.11 ± 0.12 and the “self-splicing fitness (ln)” value (37 °C) was -0.684 ± 0.14.

For CGACAGCAAUAUUACGUGUA, the “self-splicing fitness (ln)” value (30 °C) was -3 ± 0.14 and the “self-splicing fitness (ln)” value (37 °C) was -1.59 ± 0.1.

For CGACAGCAAUAUUACGUUAG, the “self-splicing fitness (ln)” value (30 °C) was -2.51 ± 0.097 and the “self-splicing fitness (ln)” value (37 °C) was -0.772 ± 0.095.
